The supplement of paper PMC7877785
± gives the uncertainty stated by the source.

Assay: self-splicing fitness, log relative to wild type (ln ratio); higher = more splicing; Tetrahymena group I intron in knt gene, E. coli kanamycin selection, DiMSum; sequences stand for … in CUCUCU…GGAGGGAAAAGUUAUCAGGCAUGCACCUGGUAGCUAGUCUUUAAACCAAUAGAUUGCAUCGGUUUAAAAGGCAAGACCGUCAAAUUGCGGGAAAGGGGUCAACAGCCGUUCAGUACCAAGUCUCAGGGGAAACUUUGAGAUGGCCUUGCAAAGGGUAUGGUAAUAAGCUGACGGACAUGGUCCUAACCACGCAGCCAAGUCCUAAGUCAACAGAUCUUCUGUUGAUAUGGAUGCAGUUCACAGACUAAAUGUCGGUCGGGGAAGAUGUAUUCUUCUCAUAAGAUAUAGUCGGACCUCUCCUUAAUGGGAGCUAGCGGAUGAAGUGAUGCAACACUGGAGCCGCUGGGAACUAAUUUGUAUGCGAAAGUAUAUUGAUUAGUUUUGGAGUACUCGUGGUCG
Outline: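 Fitness was computed with DiMSum as the error-weighted combination of replicate fold changes, kanamycin versus none, each normalised to wild type. The library randomised all eight intron nucleotides of the P1ex region, with the intron placed in the knt kanamycin-resistance gene on pET-22b(+) in E. coli BL21(DE3). Six replicate transformations were grown overnight at 37°C or 30°C on LB agar with or without 25 μg/mL kanamycin, plus 100 μg/mL carbenicillin, 50 μM IPTG and 0.2% rhamnose. Pooled colonies were amplicon-sequenced on an Illumina HiSeq 2500.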

Row | Sequence | self-splicing fitness (ln) (30 °C) | self-splicing fitness (ln) (37 °C)
1 | CGAGAGCAAUAUUACGGCCU | -2.61 ± 0.39 | -2.63 ± 0.44
2 | CGAGAGCAAUAUUACGGUAA | -1.51 ± 0.25 | -2.55 ± 0.28
3 | CGAGAGCAAUAUUACGGUUA | -3.13 ± 0.43 | -2.79 ± 0.49
4 | CGAGAGCAAUAUUACGUACU |  | -0.953 ± 0.3
5 | CGAGAGCAAUAUUACGUAGU | -2.78 ± 0.3 | -1.7 ± 0.27
6 | CGAGAGCAAUAUUACGUAUG | -3.68 ± 0.29 | -1.49 ± 0.21
7 | CGAGAGCAAUAUUACGUCUA | -3.15 ± 0.36 | 
8 | CGAGAGCAAUAUUACGUGAC | -2.77 ± 0.2 | -2.01 ± 0.29
9 | CGAGAGCAAUAUUACGUGGA | -3.7 ± 0.26 | -2.89 ± 0.23
10 | CGAGAGCAAUAUUACGUGUG | -2.97 ± 0.12 | -2.5 ± 0.15
11 | CGAUAGCAAUAUUACGAAGG | -0.374 ± 0.11 | -0.55 ± 0.17
12 | CGAUAGCAAUAUUACGAAUU | -4.06 ± 0.3 | -2.41 ± 0.21
13 | CGAUAGCAAUAUUACGACAA | -3.4 ± 0.34 | -2.35 ± 0.27
14 | CGAUAGCAAUAUUACGACUC | -1.15 ± 0.15 | -1.38 ± 0.17
15 | CGAUAGCAAUAUUACGAGAG | -2.05 ± 0.2 | -2.66 ± 0.26
16 | CGAUAGCAAUAUUACGAUCU | -0.235 ± 0.11 | 0.177 ± 0.12
17 | CGAUAGCAAUAUUACGAUUU | -2.52 ± 0.14 | -0.871 ± 0.14
18 | CGAUAGCAAUAUUACGCAGA | -3.24 ± 0.21 | -1.75 ± 0.13
19 | CGAUAGCAAUAUUACGCAGG | -1.6 ± 0.092 | -1.25 ± 0.1
20 | CGAUAGCAAUAUUACGCAUC | -3.16 ± 0.31 | -1.94 ± 0.38
21 | CGAUAGCAAUAUUACGCGUA | -2.42 ± 0.41 | -2.14 ± 0.24
22 | CGAUAGCAAUAUUACGCGUC |  | -1.76 ± 0.47
23 | CGAUAGCAAUAUUACGCUCU | -0.961 ± 0.12 | 0.447 ± 0.12
24 | CGAUAGCAAUAUUACGCUGU | -3.12 ± 0.4 | -2.15 ± 0.31
25 | CGAUAGCAAUAUUACGCUUG | -2.88 ± 0.2 | -1.04 ± 0.16

Row | Sequence | self-splicing fitness (ln) (30 °C) | self-splicing fitness (ln) (37 °C)
26 | CGAUAGCAAUAUUACGGGCU |  | 0.128 ± 0.17
27 | CGAUAGCAAUAUUACGGGUG | -0.832 ± 0.069 | -0.736 ± 0.074
28 | CGAUAGCAAUAUUACGGUUU | -3.43 ± 0.15 | -0.7 ± 0.1
29 | CGAUAGCAAUAUUACGUGAA | -4.38 ± 0.22 | -2.16 ± 0.16
30 | CGAUAGCAAUAUUACGUGCC | -1.8 ± 0.15 | 0.00354 ± 0.14
31 | CGAUAGCAAUAUUACGUGGC | -2.8 ± 0.21 | -3.36 ± 0.46
32 | CGAUAGCAAUAUUACGUGUA | -2.23 ± 0.12 | -2.15 ± 0.2
33 | CGAUAGCAAUAUUACGUUCA | -0.0649 ± 0.082 | 0.251 ± 0.1
34 | CGAUAGCAAUAUUACGUUCC | -1.5 ± 0.25 | -1.51 ± 0.32
35 | CGAUAGCAAUAUUACGUUUG | -2.29 ± 0.081 | -0.812 ± 0.081
36 | CGCAAGCAAUAUUACGACCA | -0.724 ± 0.1 | -0.453 ± 0.12
37 | CGCAAGCAAUAUUACGACCG | -1.4 ± 0.11 | -0.441 ± 0.14
38 | CGCAAGCAAUAUUACGACGC | -3.59 ± 0.2 | -2.03 ± 0.16
39 | CGCAAGCAAUAUUACGACGU | -1.73 ± 0.068 | -0.28 ± 0.069
40 | CGCAAGCAAUAUUACGAGGU | -4.03 ± 0.23 | -1.82 ± 0.16
41 | CGCAAGCAAUAUUACGAUGC |  | -2.4 ± 0.32
42 | CGCAAGCAAUAUUACGCACG | -2.96 ± 0.23 | -1.24 ± 0.17
43 | CGCAAGCAAUAUUACGCACU | -0.441 ± 0.092 | -0.325 ± 0.11
44 | CGCAAGCAAUAUUACGCCAG | -1.01 ± 0.094 | -0.582 ± 0.13
45 | CGCAAGCAAUAUUACGCCAU | -3.9 ± 0.26 | -2.61 ± 0.19
46 | CGCAAGCAAUAUUACGCCCC | -1.49 ± 0.36 | -0.475 ± 0.38
47 | CGCAAGCAAUAUUACGCCUC | -3.64 ± 0.22 | -1.78 ± 0.15
48 | CGCAAGCAAUAUUACGCGCU | -3.78 ± 0.16 | -1.41 ± 0.12
49 | CGCAAGCAAUAUUACGCGGU | -2.75 ± 0.11 | -2.44 ± 0.17
50 | CGCAAGCAAUAUUACGCUAU | -3.23 ± 0.17 | -3.15 ± 0.22

Row | Sequence | self-splicing fitness (ln) (30 °C) | self-splicing fitness (ln) (37 °C)
51 | CGCAAGCAAUAUUACGCUGG | -3.06 ± 0.31 | -2.09 ± 0.25
52 | CGCAAGCAAUAUUACGGAGC | -2.49 ± 0.17 | -2.24 ± 0.24
53 | CGCAAGCAAUAUUACGGCCA | -1.14 ± 0.13 | -0.716 ± 0.12
54 | CGCAAGCAAUAUUACGGUAU | -4.65 ± 0.19 | -2.42 ± 0.13
55 | CGCAAGCAAUAUUACGGUGU | -3.42 ± 0.16 | -3.25 ± 0.23
56 | CGCAAGCAAUAUUACGUACC | -3.02 ± 0.17 | -1.8 ± 0.17
57 | CGCAAGCAAUAUUACGUCAG | -0.378 ± 0.053 | 0.1 ± 0.069
58 | CGCAAGCAAUAUUACGUCCA | -1.46 ± 0.089 | -0.939 ± 0.1
59 | CGCAAGCAAUAUUACGUGCU | -0.881 ± 0.069 | -0.489 ± 0.081
60 | CGCAAGCAAUAUUACGUUCU | -1.53 ± 0.076 | -1.33 ± 0.087
61 | CGCCAGCAAUAUUACGAACU |  | 0.274 ± 0.25
62 | CGCCAGCAAUAUUACGACGC | -3.21 ± 0.2 | -2.97 ± 0.35
63 | CGCCAGCAAUAUUACGCAAA | -2.31 ± 0.19 | -2.64 ± 0.26
64 | CGCCAGCAAUAUUACGCACC | -2.37 ± 0.17 | -2.33 ± 0.35
65 | CGCCAGCAAUAUUACGCAUA | -3.34 ± 0.24 | -1.86 ± 0.2
66 | CGCCAGCAAUAUUACGCCUA | -3 ± 0.36 | -1.98 ± 0.32
67 | CGCCAGCAAUAUUACGCGCA | -1.98 ± 0.13 | -0.948 ± 0.13
68 | CGCCAGCAAUAUUACGCGCG | -3.57 ± 0.16 | -3.7 ± 0.27
69 | CGCCAGCAAUAUUACGCUAC | -3.74 ± 0.36 | -2.58 ± 0.28
70 | CGCCAGCAAUAUUACGCUCA | -0.656 ± 0.073 | 0.163 ± 0.083
71 | CGCCAGCAAUAUUACGCUUA | -3.1 ± 0.21 | -1.87 ± 0.17
72 | CGCCAGCAAUAUUACGGCAG | -2.3 ± 0.11 | -1.02 ± 0.12
73 | CGCCAGCAAUAUUACGGCUG | -4.51 ± 0.36 | -1.67 ± 0.19
74 | CGCCAGCAAUAUUACGGUCG | -4.17 ± 0.19 | -2.5 ± 0.2
75 | CGCCAGCAAUAUUACGGUUG | -3.7 ± 0.17 | -1.78 ± 0.15

Row | Sequence | self-splicing fitness (ln) (30 °C) | self-splicing fitness (ln) (37 °C)
76 | CGCCAGCAAUAUUACGUAAA | -3.21 ± 0.19 | -1.46 ± 0.13
77 | CGCCAGCAAUAUUACGUACA | -2.74 ± 0.2 | -0.166 ± 0.17
78 | CGCCAGCAAUAUUACGUAUA | -4.14 ± 0.23 | -3.42 ± 0.23
79 | CGCCAGCAAUAUUACGUCGU | -3.29 ± 0.15 | -2.35 ± 0.16
80 | CGCCAGCAAUAUUACGUGGG | -3.79 ± 0.19 | -2.38 ± 0.19
81 | CGCCAGCAAUAUUACGUGUA | -3.04 ± 0.097 | -1.04 ± 0.072
82 | CGCCAGCAAUAUUACGUUCU | -3.88 ± 0.26 | -1.89 ± 0.17
83 | CGCCAGCAAUAUUACGUUUA | -3.18 ± 0.15 | -2.83 ± 0.17
84 | CGCCAGCAAUAUUACGUUUU | -3.8 ± 0.15 | -2.76 ± 0.16
85 | CGCGAGCAAUAUUACGACUG | 0.265 ± 0.17 | 0.0174 ± 0.17
86 | CGCGAGCAAUAUUACGAGCG | -3.55 ± 0.28 | -2.37 ± 0.3
87 | CGCGAGCAAUAUUACGCCGG | -2.19 ± 0.25 | -1.58 ± 0.44
88 | CGCGAGCAAUAUUACGCUGC | -2.91 ± 0.28 | 
89 | CGCGAGCAAUAUUACGCUGU | -2.6 ± 0.16 | -2.74 ± 0.31
90 | CGCGAGCAAUAUUACGGAGC |  | -1.99 ± 0.26
91 | CGCGAGCAAUAUUACGGCGC | -2.93 ± 0.23 | -2.88 ± 0.31
92 | CGCGAGCAAUAUUACGGCGG | -1.64 ± 0.12 | -0.636 ± 0.17
93 | CGCGAGCAAUAUUACGGCUU | -3.01 ± 0.42 | -2.54 ± 0.26
94 | CGCGAGCAAUAUUACGGGGC | -3.26 ± 0.26 | 
95 | CGCGAGCAAUAUUACGGUCU | -3.82 ± 0.2 | -0.953 ± 0.15
96 | CGCGAGCAAUAUUACGGUGA | -2.81 ± 0.14 | -1.7 ± 0.11
97 | CGCGAGCAAUAUUACGUAUC | -3.93 ± 0.34 | -3.93 ± 0.36
98 | CGCGAGCAAUAUUACGUGUA | -3.72 ± 0.18 | -1.48 ± 0.11
